The text below walks through data of publication PMC2812701, “RelB and RelE of Escherichia coli Form a Tight Complex That Represses Transcription via the Ribbon–Helix–Helix Motif in RelB” (Journal of Molecular Biology, 2009).

In series [1] the target is RelB-Cys (E. coli) (UniProt P0C079). The series is described as follows: SPR; Biacore 3000, CM5 chip; RelB-Cys immobilised by ligand thiol coupling; Lon-His6 injected at 200 nM with or without MgCl2 (8 mM) and ATP (2 mM), and at 12.5-100 nM (monomer) for kinetics; 60 ul/min; HBS-EP pH 7.4; apparent Kd.
Another series has as its target T1, HMK-RelB (E. coli) (UniProt P0C079).
T1 sequence (chain, 32P label on the N-terminal HMK-tag (RRASV)): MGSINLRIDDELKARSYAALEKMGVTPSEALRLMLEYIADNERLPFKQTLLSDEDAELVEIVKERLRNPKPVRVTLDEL

In series [2] the test system is RelB R7A;His6-RelE (Escherichia coli;Escherichia coli). The series is described as follows: EMSA. The conditions noted are these: EMSA and footprint binding buffer as in an earlier paper (not given); footprint binding volume 35 ul, radical cleavage 37 C 1 min; native PAGE for EMSA.
The test system of series [3] is RelB K13A;His6-RelE (Escherichia coli;Escherichia coli). In words: EMSA. To be noted: EMSA and footprint binding buffer as in an earlier paper (not given); footprint binding volume 35 ul, radical cleavage 37 C 1 min; native PAGE for EMSA. A general note: A gel shift assay detects complexes by their altered migration in electrophoresis.
For series [4], the system named is RelB S28L;His6-RelE (Escherichia coli;Escherichia coli). In words: EMSA. To be noted: EMSA and footprint binding buffer as in an earlier paper (not given); footprint binding volume 35 ul, radical cleavage 37 C 1 min; native PAGE for EMSA.
Series [5] addresses RelB-Cys (E. coli) (UniProt P0C079). In words: SPR; Biacore 3000, CM5 chip; about 40 RU RelB-Cys immobilised by ligand thiol coupling; His6-RelE injected at 12.5-100 nM, 60 ul/min; HBS-EP (10 mM Hepes, 150 mM NaCl, 0.005% Tween 20, 3 mM EDTA, pH 7.4); 1:1 Langmuir fit; apparent Kd (koff/kon).
In series [6] the target is T2, His6-RelE (E. coli, UniProt P0C077 1-95).
T2 construct: toxin RelE (mRNA interferase) of the relBE locus, Escherichia coli, wild type; also called co-repressor RelE; mRNA interferase RelE; source: also in cells, co-expressed with RelB; not shown: His6, N-terminal, kept
T2 sequence (looked up): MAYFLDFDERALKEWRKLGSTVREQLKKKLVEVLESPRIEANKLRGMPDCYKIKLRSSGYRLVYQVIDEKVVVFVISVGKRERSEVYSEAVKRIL
The series is described as follows: amino acid analysis of the co-purified complex; purified RelB·RelE complex preformed in vivo (Table S2). The conditions noted are these: partners not purified.

Series [7] deals with the molecule itself. In words: cross-linking; chemical cross-linking of WT RelB and the mutated variants with BS3 [bis(sulfosuccinimidyl) suberate] (Fig. S1).
Series [8] has as its target T2, His6-RelE. In words: other fluorescence titration; tryptophan fluorescence of His6-RelE (0.35 uM) titrated with RelB; 25 °C; phosphate-buffered saline pH 7.4; excitation 295 nm, emission about 330 nm. The conditions noted are these: both partners purified.

“And” between values parts separate entries of the source, which are not always exact repeats. Equal entries are not always repeated.

The term koff denotes a measure of how fast the partners let go of each other. On to “Lon-His6 (from UniProt P0A9M0 1-784) (enzyme)”, for which, in the series with RelB-Cys (E. coli) [1], the Kd was less than 2000 pM and the koff is 0.000234 s⁻¹. For the same molecule, in the series with HMK-RelB (E. coli), the in vitro degradation of 32P-labelled HMK-RelB (0.13 uM) by Lon (0.6 uM) at 37 °C, ATP- and Mg2+-dependent, time course up to 120 min; in vitro half-life of HMK-RelB is greater than 1 h.

For the molecule relO166 (Cy5), the K half in series [2], in [3] and in series [4] was greater than 1250 nM throughout.

The kon is a measure of how fast the partners come together. Consider “His6-RelE (from UniProt P0C077 1-95) (natural protein)”, for which, in the series with RelB-Cys (E. coli) [5], the Kd was 330 pM, the in vitro half-life of the complex is 1.17 h, the koff was 0.000166 s⁻¹ and the kon was 501000 M⁻¹ s⁻¹.

B1: RelB (wild type) (natural protein, E. coli, UniProt P0C079 1-79, looked up)
chain: MGSINLRIDDELKARSYAALEKMGVTPSEALRLMLEYIADNERLPFKQTLLSDEDAELVEIVKERLRNPKPVRVTLDEL
notes: antitoxin RelB of the relBE locus, Escherichia coli, wild type; also called WT RelB; antitoxin RelB; source: also in cells, co-expressed with His6-RelE
For orientation: stoichiometry N means the number of molecules, sites or subunits per partner or assembly. Regarding B1, the “stoichiometry N” value is 2 RelB/RelE with His6-RelE [6]; 2 and 4 in series [7]; roughly 2 RelB/RelE in the series with His6-RelE [8].

B2: RelB^R7A (natural protein, E. coli, UniProt P0C079 1-79, looked up)
chain: MGSINLAIDDELKARSYAALEKMGVTPSEALRLMLEYIADNERLPFKQTLLSDEDAELVEIVKERLRNPKPVRVTLDEL
notes: antitoxin RelB, Escherichia coli, with R7A; also called RelB RHH variant R7A; source: also in cells, co-expressed with His6-RelE
For the molecule B2, in series [7], the binding result was “binds”.

B3: RelB^I8A (natural protein, E. coli, UniProt P0C079 1-79, looked up)
chain: MGSINLRADDELKARSYAALEKMGVTPSEALRLMLEYIADNERLPFKQTLLSDEDAELVEIVKERLRNPKPVRVTLDEL
notes: antitoxin RelB, Escherichia coli, with I8A; also called RelB RHH variant I8A; source: also in cells, co-expressed with His6-RelE
For B3, in series [7], the “stoichiometry N” value is 2 and 4.

B4: RelB^S28L (natural protein, E. coli, UniProt P0C079 1-79, looked up)
chain: MGSINLRIDDELKARSYAALEKMGVTPLEALRLMLEYIADNERLPFKQTLLSDEDAELVEIVKERLRNPKPVRVTLDEL
notes: antitoxin RelB, Escherichia coli, with S28L; also called RelB RHH variant S28L; source: also in cells, co-expressed with His6-RelE
Turning to B4, the “stoichiometry N” value in [7] is 2 and 4.

B5: RelB^K13A (natural protein, E. coli, UniProt P0C079 1-79, looked up)
chain: MGSINLRIDDELAARSYAALEKMGVTPSEALRLMLEYIADNERLPFKQTLLSDEDAELVEIVKERLRNPKPVRVTLDEL
notes: antitoxin RelB, Escherichia coli, with K13A; also called RelB RHH variant K13A; source: also in cells, co-expressed with His6-RelE
Consider B5, for which the binding result in series [7] was “binds”.

B6: RelB^S28R (natural protein, E. coli, UniProt P0C079 1-79, looked up)
chain: MGSINLRIDDELKARSYAALEKMGVTPREALRLMLEYIADNERLPFKQTLLSDEDAELVEIVKERLRNPKPVRVTLDEL
notes: antitoxin RelB, Escherichia coli, with S28R; also called RelB RHH variant S28R; source: also in cells, co-expressed with His6-RelE
B6: the “stoichiometry N” value in series [7] is 2 and 4.
